{"source": "paper PMC11519345", "about": "“Structural variation of types IV-A1- and IV-A3-mediated CRISPR interference”", "key": {"[1]": {"molecular_target": "type IV-A1 Cas7 (Csf2) from Pseudomonas oleovorans (Pseudomonas oleovorans)", "test": "cryo-EM structure; type IV-A1 effector complex (10 µM) reconstituted with bubbled target dsDNA (15 µM) in 10 mM HEPES-Na pH 7.5, 150 mM NaCl, then SEC; particle class without DinG"}, "[2]": {"molecular_target": "type IV-A3 Cas7 (Csf2) from Klebsiella pneumoniae (Klebsiella pneumoniae)", "test": "cryo-EM structure; type IV-A3 effector complex (10 µM) reconstituted with bubbled target dsDNA (15 µM) in 10 mM HEPES-Na pH 7.5, 150 mM NaCl, then SEC; without DinG"}, "[3]": {"molecular_target": "Type IV-A3 effector complex (Cas5-Cas8-Cas7-Cas6 crRNP), DinG-free (Klebsiella pneumoniae) (UniProt A0A8G1XN67+A0A7Z7WW72+A0A333ESG5)", "test": "EMSA", "conditions": "crRNA; EMSA: 10 mM HEPES pH 7.5, 150 mM NaCl, 1 nM DNA, on ice then 20 min RT, 6% native PAGE in TBE at 4 C; cryo-EM: 10 uM complex + 15 uM DNA in the same buffer …; scale: fold tighter than type IV-A1 complex on its target"}, "[4]": {"molecular_target": "T1, Type IV-A1 effector complex (Cas5-Cas8-Cas7-Cas6 crRNP), DinG-free (Pseudomonas oleovorans, UniProt A0A379PL53;A0A379PIR4;A0A379PIR9;A0A379PNK2 1-222;1-240;1-347;1-236)", "T1 sequence 1": "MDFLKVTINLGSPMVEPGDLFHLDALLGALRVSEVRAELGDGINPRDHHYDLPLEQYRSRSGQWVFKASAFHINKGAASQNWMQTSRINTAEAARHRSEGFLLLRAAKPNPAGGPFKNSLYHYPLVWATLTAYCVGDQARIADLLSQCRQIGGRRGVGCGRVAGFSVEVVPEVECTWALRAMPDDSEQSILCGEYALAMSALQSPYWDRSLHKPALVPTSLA", "T1 sequence 2": "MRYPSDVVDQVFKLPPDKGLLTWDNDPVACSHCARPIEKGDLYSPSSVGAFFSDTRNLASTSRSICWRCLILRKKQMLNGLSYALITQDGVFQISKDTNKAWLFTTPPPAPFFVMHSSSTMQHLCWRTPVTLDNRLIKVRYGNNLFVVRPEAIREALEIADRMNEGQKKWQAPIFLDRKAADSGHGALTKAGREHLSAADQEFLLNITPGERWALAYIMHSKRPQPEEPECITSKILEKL", "T1 sequence 3": "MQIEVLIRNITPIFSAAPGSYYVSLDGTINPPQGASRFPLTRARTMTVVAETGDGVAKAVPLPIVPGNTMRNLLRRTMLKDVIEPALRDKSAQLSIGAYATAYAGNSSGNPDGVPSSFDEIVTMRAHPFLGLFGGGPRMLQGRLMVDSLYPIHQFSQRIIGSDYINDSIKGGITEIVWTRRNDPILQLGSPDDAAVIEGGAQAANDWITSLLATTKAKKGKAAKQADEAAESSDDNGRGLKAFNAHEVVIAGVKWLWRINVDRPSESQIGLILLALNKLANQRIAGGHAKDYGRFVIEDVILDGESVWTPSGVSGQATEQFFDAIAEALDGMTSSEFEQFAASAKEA", "T1 sequence 4": "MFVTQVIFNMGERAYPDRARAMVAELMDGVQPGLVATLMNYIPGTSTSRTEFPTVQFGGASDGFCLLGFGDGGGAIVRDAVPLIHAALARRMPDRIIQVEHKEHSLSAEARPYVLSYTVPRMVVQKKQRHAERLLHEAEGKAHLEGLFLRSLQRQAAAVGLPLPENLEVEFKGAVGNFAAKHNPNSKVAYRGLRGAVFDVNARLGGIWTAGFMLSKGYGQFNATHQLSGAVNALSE", "test": "cryo-EM; crRNA; no DinG; 3.0 A; PDB code not assigned in the material (8RC2/8RC3/8RFJ); EMSA: 10 mM HEPES pH 7.5, 150 mM NaCl, 1 nM DNA, on ice then 20 min RT, 6% native PAGE in TBE at 4 C; cryo-EM: 10 uM complex + 15 uM DNA in the same buffer, 10", "conditions": "protein: recombinant; tags: His6 C-terminal on Cas8; copies: 1;1;5;1; bubble: non-complementary protospacer, paired 15 nt and 14+ nt ends"}}}
{"molecule": "type IV-A1 Cas7 (Csf2) from Pseudomonas oleovorans (natural protein)", "values": [{"measurement": "stoichiometry N", "setting": "[1]", "result": 5}]}
{"molecule": "type IV-A3 Cas7 (Csf2) from Klebsiella pneumoniae (natural protein)", "values": [{"measurement": "stoichiometry N", "setting": "[2]", "result": 6}]}
{"molecule": "IV-A3 EMSA target, no mismatch", "values": [{"measurement": "binding signal", "setting": "[3]", "result": 10}]}
{"molecule": "Type IV-A1 bubbled target DNA (TS/NTS) for cryo-EM (dsDNA) DNA 1: CGGTCGGGTCATACGTCGCGTCTCGAATCTGATGCGTAACTTGGATGCTTCGTGCGTGATG DNA 2: CATCACGCACGAAGACCAAGTCAATGCTTAGTCTAATACCTGCGCTCGTATGACCCGACCG", "values": [{"measurement": "binding result", "setting": "[4]", "result": "binds"}]}
